Laboratory results from IntAct's records for PubMed 15173383.

B1: DNA polymerase delta catalytic subunit (Schizosaccharomyces pombe (strain ATCC 38366 / 972)), P30316 (parent)
chain: MTDRSSNEGVVLNKENYPFPRRNGSIHGEITDVKRRRLSERNGYGDKKGSSSKEKTSSFEDELAEYASQLDQDEIKSSKDQQWQRPALPAINPEKDDIYFQQIDSEEFTEGSVPSIRLFGVTDNGNSILVHVVGFLPYFYVKAPVGFRPEMLERFTQDLDATCNGGVIDHCIIEMKENLYGFQGNEKSPFIKIFTTNPRILSRARNVFERGEFNFEELFPVGVGVTTFESNTQYLLRFMIDCDVVGMNWIHLPASKYQFRYQNRVSNCQIEAWINYKDLISLPAEGQWSKMAPLRIMSFDIECAGRKGVFPDPSIDPVIQIASIVTQYGDSTPFVRNVFCVDTCSQIVGTQVYEFQNQAEMLSSWSKFVRDVDPDVLIGYNICNFDIPYLLDRAKSLRIHNFPLLGRIHNFFSVAKETTFSSKAYGTRESKTTSIPGRLQLDMLQVMQRDFKLRSYSLNAVCSQFLGEQKEDVHYSIITDLQNGTADSRRRLAIYCLKDAYLPQRLMDKLMCFVNYTEMARVTGVPFNFLLARGQQIKVISQLFRKALQHDLVVPNIRVNGTDEQYEGATVIEPIKGYYDTPIATLDFSSLYPSIMQAHNLCYTTLLDSNTAELLKLKQDVDYSVTPNGDYFVKPHVRKGLLPIILADLLNARKKAKADLKKETDPFKKAVLDGRQLALKVSANSVYGFTGATNGRLPCLAISSSVTSYGRQMIEKTKDVVEKRYRIENGYSHDAVVIYGDTDSVMVKFGVKTLPEAMKLGEEAANYVSDQFPNPIKLEFEKVYFPYLLISKKRYAGLFWTRTDTYDKMDSKGIETVRRDNCPLVSYVIDTALRKMLIDQDVEGAQLFTKKVISDLLQNKIDMSQLVITKALSKTDYAAKMAHVELAERMRKRDAGSAPAIGDRVAYVIIKGAQGDQFYMRSEDPIYVLENNIPIDAKYYLENQLSKPLLRIFEPILGEKASSLLHGDHTRTISMAAPSVGGIMKFAVKVETCLGCKAPIKKGKTALCENCLNRSAELYQRQVAQVNDLEVRFARLWTQCQRCQGSMHQDVICTSRDCPIFYMRIAEHKKLQQSVDLLKRFDEMSW
partner: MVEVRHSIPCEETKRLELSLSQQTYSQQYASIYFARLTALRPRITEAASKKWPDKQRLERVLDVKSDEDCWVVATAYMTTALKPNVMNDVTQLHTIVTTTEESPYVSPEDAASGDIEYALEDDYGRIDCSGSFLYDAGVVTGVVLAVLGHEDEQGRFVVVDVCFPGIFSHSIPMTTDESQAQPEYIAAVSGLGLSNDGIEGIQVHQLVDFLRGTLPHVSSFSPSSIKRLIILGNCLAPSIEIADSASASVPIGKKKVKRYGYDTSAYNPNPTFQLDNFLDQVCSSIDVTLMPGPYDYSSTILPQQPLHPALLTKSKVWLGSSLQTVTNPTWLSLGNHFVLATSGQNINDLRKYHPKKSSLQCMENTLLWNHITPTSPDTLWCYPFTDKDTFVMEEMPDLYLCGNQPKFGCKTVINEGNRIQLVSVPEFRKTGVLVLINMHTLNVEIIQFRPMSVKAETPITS
B2: DNA polymerase delta catalytic subunit (Saccharomyces cerevisiae), P15436 (parent)
chain: MSEKRSLPMVDVKIDDEDTPQLEKKIKRQSIDHGVGSEPVSTIEIIPSDSFRKYNSQGFKAKDTDLMGTQLESTFEQELSQMEHDMADQEEHDLSSFERKKLPTDFDPSLYDISFQQIDAEQSVLNGIKDENTSTVVRFFGVTSEGHSVLCNVTGFKNYLYVPAPNSSDANDQEQINKFVHYLNETFDHAIDSIEVVSKQSIWGYSGDTKLPFWKIYVTYPHMVNKLRTAFERGHLSFNSWFSNGTTTYDNIAYTLRLMVDCGIVGMSWITLPKGKYSMIEPNNRVSSCQLEVSINYRNLIAHPAEGDWSHTAPLRIMSFDIECAGRIGVFPEPEYDPVIQIANVVSIAGAKKPFIRNVFTLNTCSPITGSMIFSHATEEEMLSNWRNFIIKVDPDVIIGYNTTNFDIPYLLNRAKALKVNDFPYFGRLKTVKQEIKESVFSSKAYGTRETKNVNIDGRLQLDLLQFIQREYKLRSYTLNAVSAHFLGEQKEDVHYSIISDLQNGDSETRRRLAVYCLKDAYLPLRLMEKLMALVNYTEMARVTGVPFSYLLARGQQIKVVSQLFRKCLEIDTVIPNMQSQASDDQYEGATVIEPIRGYYDVPIATLDFNSLYPSIMMAHNLCYTTLCNKATVERLNLKIDEDYVITPNGDYFVTTKRRRGILPIILDELISARKRAKKDLRDEKDPFKRDVLNGRQLALKISANSVYGFTGATVGKLPCLAISSSVTAYGRTMILKTKTAVQEKYCIKNGYKHDAVVVYGDTDSVMVKFGTTDLKEAMDLGTEAAKYVSTLFKHPINLEFEKAYFPYLLINKKRYAGLFWTNPDKFDKLDQKGLASVRRDSCSLVSIVMNKVLKKILIERNVDGALAFVRETINDILHNRVDISKLIISKTLAPNYTNPQPHAVLAERMKRREGVGPNVGDRVDYVIIGGNDKLYNRAEDPLFVLENNIQVDSRYYLTNQLQNPIISIVAPIIGDKQANGMFVVKSIKINTGSQKGGLMSFIKKVEACKSCKGPLRKGEGPLCSNCLARSGELYIKALYDVRDLEEKYSRLWTQCQRCAGNLHSEVLCSNKNCDIFYMRVKVKKELQEKVEQLSKW
partner: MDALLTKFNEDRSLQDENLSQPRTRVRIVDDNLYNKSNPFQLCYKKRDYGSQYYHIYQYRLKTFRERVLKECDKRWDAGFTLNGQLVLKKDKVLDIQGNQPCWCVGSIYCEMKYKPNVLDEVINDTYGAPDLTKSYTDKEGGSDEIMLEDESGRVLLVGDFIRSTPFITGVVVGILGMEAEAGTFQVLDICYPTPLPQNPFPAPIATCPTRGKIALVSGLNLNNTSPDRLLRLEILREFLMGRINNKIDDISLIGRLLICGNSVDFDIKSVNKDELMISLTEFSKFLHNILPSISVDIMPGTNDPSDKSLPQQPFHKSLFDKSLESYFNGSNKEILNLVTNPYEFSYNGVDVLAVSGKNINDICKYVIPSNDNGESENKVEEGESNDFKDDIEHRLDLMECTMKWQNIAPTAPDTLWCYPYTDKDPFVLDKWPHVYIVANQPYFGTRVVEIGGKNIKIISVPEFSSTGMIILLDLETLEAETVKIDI
B3: DNA polymerase delta small subunit (Saccharomyces cerevisiae), P46957 (parent)
chain: B2 partner
partner: B2 chain

Variants of: B1
Details: with dpod2_schpo cdc1, P87324

| effect of a mutation on the interaction | Variant |
| --- | --- |
| decreasing interaction | C1043A |
| decreasing interaction | C1058S |
| decreasing interaction | C1058A |
| decreasing interaction | C1040A |
| decreasing interaction | C1053A |

Variants of: B2
Details: with dpod2_yeast POL31, P46957

| effect of a mutation on the interaction | Variant |
| --- | --- |
| decreasing interaction | Q1057A |
| decreasing interaction | C1074A |
| decreasing interaction | R1058A |
| decreasing interaction | C1059A |
| decreasing interaction | C1069A |
| decreasing interaction | H1064A |
| decreasing interaction | C1056A |
| decreasing interaction | E1047A |

Variants of: B3
Details: with dpod_yeast POL3, P15436

| effect of a mutation on the interaction | Variant |
| --- | --- |
| increasing interaction | MDALLTKFNEDRSLQDENLSQPRTRVRIVDDNLYNKSNPFQLCYKKRDYGSQYYHIYQYRLKTFRERVLKECDKRWDAGFTLNGQLVLKKDKVLDIQGNQPCWCVGSIYCEMKYKPNVLDEVINDTYGAPDLTKSYTDKEGGSDEIMLEDESGRVLLVGDFIRSTPFITGVVVGILGMEAEAGTFQVLDICYPTPLPQNPFPAPIATCPTRGKIALVSGLNLNNTSPDRLLRLEILREFLMGRINNKIDDISLIGRLLICGNSVDFDIKSVNKDELMISLTEFSKFLHNILPSISVDIMPGTNDPSDKSLPQQPFHKSLFDKSLESYFNGSNKEILNLVTNPYEFSYNGVDVLAVSGENINDICKYVIPSNDNGESENKVEEGESNDFKDDIEHRLDLMECTMKWQNIAPTAPDTLWCYPYTDKDPFVLDKWPHVYIVANQPYFGTRVVEIGGKNIKIISVPEFSSTGMIILLDLETLEAETVKIDI [K358E] |
